Kd, koff and kon data for eight molecules are collected here from EP2402371A1.

The target of the assay is extracellular domain of human GPVI (human) (UniProt Q9HCN6). The experiment in a line: SPR (Biacore 3000), human GPVI immobilised by amine coupling, Fab as analyte. (In general: In SPR one partner is held on a chip, and binding of the other changes the refractive index at the surface.)

B1: humanized anti-GPVI Fab VL1/VH1 (Fab, V domains shown)
VH: QVQLQESGPGLVAPSQSLSITCTVSGFSLTGYGVNWVRQPPSRGLEWLGMIWGDGSTDYQSTLKSRLSISKDTSKSQVFLKMNSLTTDDTARYYCARDLPMDYWGQGTSVTVSS
VL: DIQMTQSPSSLSASVGGRVTITCKASQDINKYIAWYQHKPGKGPSLLIHYTSTLQPGVPSRFSGSGSGRDYSFSISNLQPEDIATYYCLQYANLLTFGGGTKLEIKR
Turning to B1, the Kd was determined as 0.4 nM, the dissociation rate constant (koff) worked out at 4e-05 s⁻¹ and the association rate constant (kon) was determined as 111000 M⁻¹ s⁻¹.

B2: humanized anti-GPVI Fab VL1/VH3 (Fab, V domains shown)
VH: EVQLLESGPGLVAPSGSLSITCTVSGFSLTGYGVNWVRQPPGKGLEWLGMIWGDGSTDYQSTLKSRLSISKDNSKSQVFLKMNSLRTDDTARYYCARDLPMDYWGLGTSVTVSS
VL: DIQMTQSPSSLSASVGGRVTITCKASQDINKYIAWYQHKPGKGPSLLIHYTSTLQPGVPSRFSGSGSGRDYSFSISNLQPEDIATYYCLQYANLLTFGGGTKLEIKR
Molecule B2 registered a dissociation constant (Kd) of 0.1 nM, a koff of 2e-05 s⁻¹ and a kon of 148000 M⁻¹ s⁻¹.

B3: humanized anti-GPVI Fab VL1/VH4 (Fab, V domains shown)
VH: QVQLQESGPGLVAPSQSLSITCTVSGFSLTYYGVNWVRQPPSRGLEWLGMIWGDGSTDYQSTLKSRLSISKDNSKSQVFLKMNSLTTDDTARYYCARDLPMDYWGQGTSVTVSS
VL: DIQMTQSPSSLSASVGGRVTITCKASQDINKYIAWYQHKPGKGPSLLIHYTSTLQPGVPSRFSGSGSGRDYSFSISNLQPEDIATYYCLQYANLLTFGGGTKLEIKR
Molecule B3 gave a dissociation constant (Kd) of 0.2 nM, a koff of 2e-05 s⁻¹ and a kon of 124000 M⁻¹ s⁻¹.

B4: humanized anti-GPVI Fab VL2/VH2 (Fab, V domains shown)
VH: QVQLQESGPGLVAPSQSLSITCTVSGFSLTGYGVNWVRQPPSRGLEWLGMIWGDGSTDYQSTLKSRLSISKDNSKSQVFLKMNSLTTDDTARYYCARDLPMDYWGQGTSVTVSS
VL: DIQMTQSPSSLSASVGGRVTITCKASQDINKYIAWYQHKPGKGPSLLIHYTSTLQPGVPSRFSGSGSGRDYSFSISNLQPEDIATYYCLQYAHLLTFGGGTKLEIKR
Take B4: the equilibrium dissociation constant (Kd) amounted to 0.3 nM, the dissociation rate constant (koff) worked out at 3e-05 s⁻¹ and the on-rate (kon) was 108000 M⁻¹ s⁻¹.

B5: humanized anti-GPVI Fab VL3/VH4 (Fab, V domains shown)
VH: QVQLQESGPGLVAPSQSLSITCTVSGFSLTYYGVNWVRQPPSRGLEWLGMIWGDGSTDYQSTLKSRLSISKDNSKSQVFLKMNSLTTDDTARYYCARDLPMDYWGQGTSVTVSS
VL: DIQMTQSPSSLSASVGGRVTITCKASQDINKYIAWYQHKPGKGPSLLIHYTSTLQPGVPSRFSGSGSGRDYSFSISNLQPEDIATYYCLQYALLLTFGGGTKLEIKR
The molecule B5 yielded a dissociation constant Kd of 0.3 nM, a koff of 4e-05 s⁻¹ and a kon of 151000 M⁻¹ s⁻¹.

B6: humanized anti-GPVI Fab VL3/VH2 (Fab, V domains shown)
VH: QVQLQESGPGLVAPSQSLSITCTVSGFSLTGYGVNWVRQPPSRGLEWLGMIWGDGSTDYQSTLKSRLSISKDNSKSQVFLKMNSLTTDDTARYYCARDLPMDYWGQGTSVTVSS
VL: DIQMTQSPSSLSASVGGRVTITCKASQDINKYIAWYQHKPGKGPSLLIHYTSTLQPGVPSRFSGSGSGRDYSFSISNLQPEDIATYYCLQYALLLTFGGGTKLEIKR
B6 came in with an equilibrium dissociation constant (Kd) of 0.2 nM, a koff of 3e-05 s⁻¹ and an on-rate (kon) of 132000 M⁻¹ s⁻¹.

B7: humanized anti-GPVI Fab VL1/VH5 (Fab, V domains shown)
VH: QVQLQESGPGLVAPSQSLSITCTVSGFSLTGYGVNWVRQPPSRGLEWLGMIWGDGSTDYQSTLKSRLSISKDNSKSQVFLKMNSLTTDDTARYYCARDLPMDEWGQGTSVTVSS
VL: DIQMTQSPSSLSASVGGRVTITCKASQDINKYIAWYQHKPGKGPSLLIHYTSTLQPGVPSRFSGSGSGRDYSFSISNLQPEDIATYYCLQYANLLTFGGGTKLEIKR
B7 returned a dissociation constant (Kd) of 0.4 nM, a koff of 3e-05 s⁻¹ and a kon of 81000 M⁻¹ s⁻¹.

B8: humanized anti-GPVI Fab VL1/VH2 (Fab, V domains shown)
VH: QVQLQESGPGLVAPSQSLSITCTVSGFSLTGYGVNWVRQPPSRGLEWLGMIWGDGSTDYQSTLKSRLSISKDNSKSQVFLKMNSLTTDDTARYYCARDLPMDYWGQGTSVTVSS
VL: DIQMTQSPSSLSASVGGRVTITCKASQDINKYIAWYQHKPGKGPSLLIHYTSTLQPGVPSRFSGSGSGRDYSFSISNLQPEDIATYYCLQYANLLTFGGGTKLEIKR
On to B8, for which the Kd stood at 0.2 nM, the koff was determined as 3e-05 s⁻¹ and the kon amounted to 113000 M⁻¹ s⁻¹.

For orientation: Kd means the constant that tells how readily two partners part at equilibrium. A high value points to lower affinity. As usually defined, the koff is the rate constant with which the complex falls apart. Low readings indicate a long-lived complex, high ones a short-lived complex. In general, kon refers to the rate constant with which the complex forms.
